The results in this text go back to patent US20230125301A1 (published 2023).

To fix the notation:
B1: CLDN18L-G9-pdl1a (bispecific antibody)
heavy: not shown
light: DIVMTQSPLSLPVTPGEPASISCKSSQTLLNSGNQKNYLTWYLQKPGQSPQLLIYWASTGESGVPDRFSGSGSGTDFTLKISRVEAEDVGVYYCQNAYFYPFTFGGGTKVEIKRTVAAPSVFIFPPSDEQLKSGTASVVCLLNNFYPREAKVQWKVDNALQSGNSQESVTEQDSKDSTYSLSSTLTLSKADYEKHKVYACEVTHQGLSSPVTKSFNRGECGGGGSGGGSEVQLVESGGGLVQPGGSLRLSCAASGRTFVTYGMGWFRQAPGKGREFVSAISWSGSMTSYGDSVKGRFTISRDNAKNTLYLQMNSLRPEDTAVYYCAAALGAVVYTTREPYTYWGQGTLVTVSS
B2: CLDN18L-Ea-pdl1a (bispecific antibody)
heavy: not shown
light: DIVMTQSPLSLPVTPGEPASISCKSSQTLLNSGNQKNYLTWYLQKPGQSPQLLIYWASTGESGVPDRFSGSGSGTDFTLKISRVEAEDVGVYYCQNAYFYPFTFGGGTKVEIKRTVAAPSVFIFPPSDEQLKSGTASVVCLLNNFYPREAKVQWKVDNALQSGNSQESVTEQDSKDSTYSLSSTLTLSKADYEKHKVYACEVTHQGLSSPVTKSFNRGECEPKSSDKGHGGPPGPEVQLVESGGGLVQPGGSLRLSCAASGRTFVTYGMGWFRQAPGKGREFVSAISWSGSMTSYGDSVKGRFTISRDNAKNTLYLQMNSLRPEDTAVYYCAAALGAVVYTTREPYTYWGQGTLVTVSS
B3: CLDN18L-E-pdl1a (bispecific antibody)
heavy: not shown
light: B2 light with G228T, G230T, G231S, G234S
B4: CLDN18L-E2-pdl1a (bispecific antibody)
heavy: not shown
light: DIVMTQSPLSLPVTPGEPASISCKSSQTLLNSGNQKNYLTWYLQKPGQSPQLLIYWASTGESGVPDRFSGSGSGTDFTLKISRVEAEDVGVYYCQNAYFYPFTFGGGTKVEIKRTVAAPSVFIFPPSDEQLKSGTASVVCLLNNFYPREAKVQWKVDNALQSGNSQESVTEQDSKDSTYSLSSTLTLSKADYEKHKVYACEVTHQGLSSPVTKSFNRGECERKSSVESPPSPEVQLVESGGGLVQPGGSLRLSCAASGRTFVTYGMGWFRQAPGKGREFVSAISWSGSMTSYGDSVKGRFTISRDNAKNTLYLQMNSLRPEDTAVYYCAAALGAVVYTTREPYTYWGQGTLVTVSS
B5: CLDN18L-E4a-pdl1a (bispecific antibody)
heavy: not shown
light: B4 light with R222S, S224Y, S225G, V226P, E227P, S228G, S231G
B6: CLDN18L-E4-pdl1a (bispecific antibody)
heavy: not shown
light: B4 light with R222S, S224Y, S225G, V226P, E227P
B7: CLDN18L-E2a-pdl1a (bispecific antibody)
heavy: not shown
light: B4 light with S225G, S228G, S231G
B8: CLDN18L-G15-pdl1a (bispecific antibody)
heavy: not shown
light: DIVMTQSPLSLPVTPGEPASISCKSSQTLLNSGNQKNYLTWYLQKPGQSPQLLIYWASTGESGVPDRFSGSGSGTDFTLKISRVEAEDVGVYYCQNAYFYPFTFGGGTKVEIKRTVAAPSVFIFPPSDEQLKSGTASVVCLLNNFYPREAKVQWKVDNALQSGNSQESVTEQDSKDSTYSLSSTLTLSKADYEKHKVYACEVTHQGLSSPVTKSFNRGECGGGGSGGGGSGGGGSEVQLVESGGGLVQPGGSLRLSCAASGRTFVTYGMGWFRQAPGKGREFVSAISWSGSMTSYGDSVKGRFTISRDNAKNTLYLQMNSLRPEDTAVYYCAAALGAVVYTTREPYTYWGQGTLVTVSS
B9: pdl1a-E-CLDN18L (bispecific antibody)
heavy: not shown
light: EVQLVESGGGLVQPGGSLRLSCAASGRTFVTYGMGWFRQAPGKGREFVSAISWSGSMTSYGDSVKGRFTISRDNAKNTLYLQMNSLRPEDTAVYYCAAALGAVVYTTREPYTYWGQGTLVTVSSEPKSSDKTHTSPPSPDIVMTQSPLSLPVTPGEPASISCKSSQTLLNSGNQKNYLTWYLQKPGQSPQLLIYWASTGESGVPDRFSGSGSGTDFTLKISRVEAEDVGVYYCQNAYFYPFTFGGGTKVEIKRTVAAPSVFIFPPSDEQLKSGTASVVCLLNNFYPREAKVQWKVDNALQSGNSQESVTEQDSKDSTYSLSSTLTLSKADYEKHKVYACEVTHQGLSSPVTKSFNRGEC

Residue numbers refer to the chain shown, from its start.

The target of the first experiment is T1, human PD-L1 (human, UniProt Q9NZQ7 19-290). The experiment in a line: FACS binding, CHO-K1 cells. For orientation: In flow cytometry, cells or beads pass a laser one at a time.
T1 sequence (Q9NZQ7 19-290): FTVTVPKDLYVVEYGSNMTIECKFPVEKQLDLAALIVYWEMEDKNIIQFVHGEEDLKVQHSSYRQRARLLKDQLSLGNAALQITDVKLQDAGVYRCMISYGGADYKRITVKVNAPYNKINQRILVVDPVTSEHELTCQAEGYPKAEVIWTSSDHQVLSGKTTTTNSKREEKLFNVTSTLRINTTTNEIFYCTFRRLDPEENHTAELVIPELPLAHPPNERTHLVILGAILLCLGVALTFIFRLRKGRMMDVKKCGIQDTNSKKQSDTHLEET
Molecule B1 had an EC50 of 0.591 nM.

In turn, B2 gave an EC50 of 0.394 nM.

As to B3, the concentration giving a half-maximal response (EC50) came to 0.34 nM.

On to B4, for which the EC50 was 0.333 nM.

B5 came in with an EC50 of 0.452 nM.

With B6, the EC50 is 0.424 nM.

On to B7, for which the EC50 was 0.439 nM.

The target in the next experiment is T1, human PD-L1. Briefly: FACS binding, CHO-K1 cells. This is another data set of the same source.
Molecule B8 gave an EC50 of 0.456 nM.

In turn, B3 displayed an EC50 of 0.262 nM.

For B9, the concentration for a half-maximal effect (EC50) was found to be 0.131 nM.

The next experiment concerns the target T1, human PD-L1. The experiment in a line: FACS binding, CHO-K1 cells. This is another data set of the same source.
The molecule B8 gave an EC50 of 0.404 nM.

B1 gave an EC50 of 0.418 nM.

Turning to B3, the EC50 was 0.215 nM.

The molecule B9 yielded an EC50 of 0.107 nM.

For orientation: EC50 means the concentration that produces a half-maximal response. Higher therefore signals a need for much substance.
